Results: patent US20250074980A1 (BRIGHAM AND WOMEN S HOSPITAL, published 2025)

T1: CEACAM3 on transfected HeLa cells (human, UniProt P40198 35-252)
T1 construct: whole, on cells; also called HeLa-CEACAM3; HeLa C3
T1 sequence (looked up): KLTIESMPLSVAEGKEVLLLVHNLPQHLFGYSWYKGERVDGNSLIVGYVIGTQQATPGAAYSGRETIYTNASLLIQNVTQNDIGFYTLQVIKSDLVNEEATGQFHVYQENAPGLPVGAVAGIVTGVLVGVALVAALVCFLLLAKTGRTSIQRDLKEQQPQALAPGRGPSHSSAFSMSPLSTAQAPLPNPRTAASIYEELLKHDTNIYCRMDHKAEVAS

T2: CEACAM8 on transfected HeLa cells (human, UniProt P31997 35-320)
T2 construct: whole, on cells; also called HeLa-CEACAM8; HeLa C8
T2 sequence (looked up): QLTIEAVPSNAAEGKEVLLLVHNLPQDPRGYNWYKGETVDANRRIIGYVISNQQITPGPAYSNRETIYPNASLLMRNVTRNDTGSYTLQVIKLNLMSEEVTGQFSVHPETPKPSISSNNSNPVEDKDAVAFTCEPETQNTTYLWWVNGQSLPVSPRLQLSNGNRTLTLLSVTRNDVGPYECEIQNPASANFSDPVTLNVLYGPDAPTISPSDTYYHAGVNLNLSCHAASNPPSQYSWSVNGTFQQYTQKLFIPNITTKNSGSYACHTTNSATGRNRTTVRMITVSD

T3: His-tagged CEACAM1 (human, UniProt P13688 35-428)
T3 construct: 45 kDa SPR analyte; also called CEACAM1-HIS; CEACAM1 analyte
T3 sequence: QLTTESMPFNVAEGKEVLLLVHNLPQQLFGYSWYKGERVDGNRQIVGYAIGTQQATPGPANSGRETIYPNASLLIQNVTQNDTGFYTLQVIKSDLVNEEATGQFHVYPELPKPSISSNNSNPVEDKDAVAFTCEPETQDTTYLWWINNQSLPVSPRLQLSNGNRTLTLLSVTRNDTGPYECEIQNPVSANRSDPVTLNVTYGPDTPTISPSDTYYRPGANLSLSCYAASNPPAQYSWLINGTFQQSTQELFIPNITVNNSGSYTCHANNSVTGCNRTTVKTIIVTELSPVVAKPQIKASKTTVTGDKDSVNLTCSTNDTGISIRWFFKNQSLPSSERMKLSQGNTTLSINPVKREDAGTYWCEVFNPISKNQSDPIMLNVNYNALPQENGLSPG

T4: CEACAM6 on transfected HeLa cells (human, UniProt P40199 35-320)
T4 construct: whole, on cells; also called HeLa-CEACAM6; HeLa C6
T4 sequence (looked up): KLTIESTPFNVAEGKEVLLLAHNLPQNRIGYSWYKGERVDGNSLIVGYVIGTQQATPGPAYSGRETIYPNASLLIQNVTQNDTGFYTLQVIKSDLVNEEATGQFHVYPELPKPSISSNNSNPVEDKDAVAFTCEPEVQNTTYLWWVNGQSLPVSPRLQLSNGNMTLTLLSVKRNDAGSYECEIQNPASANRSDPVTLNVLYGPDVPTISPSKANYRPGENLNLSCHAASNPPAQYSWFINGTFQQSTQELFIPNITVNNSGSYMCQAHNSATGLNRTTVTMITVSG


Experiments:
[1] = biological target: T1, CEACAM3 on transfected HeLa cells; assay: flow cytometry, transfected HeLa
How it was run: (§1)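 Binding selectivity was assessed by flow cytometry and is expressed as the staining of each HeLa transfectant, each stably carrying a single CEACAM family member. The cells were kept at 37° C, 5.0% CO₂ in DMEM containing 10% fetal bovine serum. Staining used the test antibody followed by a fluorochrome-conjugated isotype-specific secondary antibody, and DAPI marked viability.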

[2] = biological target: T2, CEACAM8 on transfected HeLa cells; assay: flow cytometry, transfected HeLa
How it was run: as §1

His-tagged CEACAM1 = biological target: T3, His-tagged CEACAM1; assay: SPR single-cycle, IgG captured
Method: As an alternative approach to assess the binding of the 36 antibody combinations and the three control antibodies to CEACAM1, a kinetic analysis was performed on a Biacore T200 (serial no. 1909913) running Biacore T200 Evaluation Software V2.0.1 (Uppsala, Sweden). All experiments were run at 25° C. with HBS-P+ running buffer (pH 7.4) (GE Healthcare, cat. no. BR100671). All kinetic experiments were performed using His-tagged CEACAM1 as the analyte. For all experiments, antibodies were immobilized onto a Series S Protein A sensor chip surface. For kinetic experiments, the amount of immobilized/captured ligand was limited to avoid mass transfer effects at the surface of the chip with the surface ideally having an analyte binding level (Rₘₐₓ) of 50-150 RUs. Using a MW of 45 kDa for the CEACAM1 analyte, 150 kDa for the antibody ligand (estimated value for IgG), 50 RU for Rmax and the stoichiometry (Sm) as 2 due to the ability of each antibody to bind 2 target molecules, a target response level of ˜75 RUs was set for capture of all the sample antibodies.
Single cycle analysis of the 36 antibody combinations and the three control antibodies was performed on purified antibodies (Vκ1 to Vκ6 variants) or on the supernatants of the transiently transfected HEK EBNA cells (Vκ7 to Vκ12 variants). In some instances, where supernatant was not available, purified chimeric antibody VH0/Vκ0 was spiked into HEK EBNA culture medium to use as a positive control. Antibodies were diluted in HBS-P+ to a concentration of 1 μg/ml (as determined by an IgG quantitation ELISA). At the start of each cycle, antibodies were loaded onto Fc2, Fc3 and Fc4 of a protein A chip and IgG captured at a flow rate of 8 μl/min to give an RU of ˜75. The surface was then allowed to stabilize. Single cycle kinetic data was obtained at a flow rate of 50 μl/min to minimize any potential mass transfer effects. Multiple repeats of the chimeric antibody VH0/Vκ0 were performed to check the stability of the surface and analyte over the kinetic cycles. The signal from the reference channel Fc1 (no antibody) was subtracted from that of Fc2, Fc3 and Fc4 to correct for differences in non-specific binding to a reference surface. A 5 point 2-fold dilution range from 3.125 to 50 nM CEACAM1 without regeneration between each concentration was used.

[3] = biological target: T4, CEACAM6 on transfected HeLa cells; assay: flow cytometry, HeLa-CEACAM6 transfectants, % positive cells
Method: Binding selectivity for CEACAM1 was tested for the 24 humanized antibody variants that bound to CEACAM1 (see Table 3), as well as the chimeric control antibody VH0/Vκ0, by flow cytometry on HeLa cells transfected with CEACAM1, 3, 5, 6 and 8. […] There was no evidence of any staining of the HeLa-CEACAM3 or HeLa-CEACAM8 transfectants. […] Due to its favorable affinity to and selectivity for CEACAM1 as well as its favorable expression level, VH1/Vκ8 was chosen as the framework for affinity maturation.

| Binder | binding result [1] | binding result [2] | Kd (His-tagged CEACAM1) [nM] | relative KD to VH0/Vκ0 (His-tagged CEACAM1) | binding result [3] |
| --- | --- | --- | --- | --- | --- |
| VH1/Vκ11 (antibody, IgG4, V domains shown, IgG4 (S241P), kappa) VH: EVQLLESGGGLVQPGGSLRLSCAASGFIFSSHGMSWVRQAPGKGLEWVATISSGGTYTYYPDSVKGRFTISRDNSKNTLYLQMNSLKAEDTAMYYCARHDFDYDAAWFAYWGQGTLVTVSS VL: EIVLTQSPATLSLSPGERATLSCRANSSVSYMYWYQQKPGQAPRPWIYLTSNRATGIPARFSGSGSGTDYTLTISSLEPEDFAVYYCQQWSSNPPTFGQGTKLEIK | no binding | no binding | 143 | 3.5 | no binding |
| VH1/Vκ4 (antibody, IgG4, V domains shown, IgG4 (S241P), kappa) VH: EVQLLESGGGLVQPGGSLRLSCAASGFIFSSHGMSWVRQAPGKGLEWVATISSGGTYTYYPDSVKGRFTISRDNSKNTLYLQMNSLKAEDTAMYYCARHDFDYDAAWFAYWGQGTLVTVSS VL: EIVLTQSPATLSLSPGERATLSCRANSSVSYMYWYQQKPGQAPRPWIYLTSNRATGIPARFSGSGSGTDYTLTISSLEPEDFATYYCQQWSSNPPTFGQGTKLEIK | no binding | no binding | 131 | 3.1 | no binding |
| VH2/Vκ1 (antibody, IgG4, V domains shown, IgG4 (S241P), kappa) VH: EVQLLESGGGLVQPGGSLRLSCAASGFIFSSHGMSWVRQAPGKGLEWVATISSGGTYTYYPDSVKGRFTISRDNSKNTLYLQMNSLRAEDTAMYYCARHDFDYDAAWFAYWGQGTLVTVSS VL: QIVLTQSPALLSLSPGERATMSCSANSSVSYMYWYRQKPGQAPKPWIYLTSNLASGVPARFSGSGSGTDYTLTISSLEAEDFATYYCQQWSSNPPTFGQGTKLEIK | no binding | no binding | 113 | 2.7 | no binding |
| VH4/Vκ4 (antibody, IgG4, V domains shown, IgG4 (S241P), kappa) VH: EVQLLESGGGLVQPGGSLRLSCAASGFIFSSHGMSWVRQAPGKGLEWVSTISSGGTYTYYADSVKGRFTISRDNSKNTLYLQMNSLRAEDTAVYYCARHDFDYDAAWFAYWGQGTLVTVSS VL: EIVLTQSPATLSLSPGERATLSCRANSSVSYMYWYQQKPGQAPRPWIYLTSNRATGIPARFSGSGSGTDYTLTISSLEPEDFATYYCQQWSSNPPTFGQGTKLEIK | no binding | no binding | 120 | 2.9 | no binding |

Now those with a lower Kd (His-tagged CEACAM1), led by results:

| binding result [1] | binding result [2] | Kd (His-tagged CEACAM1) [nM] | relative KD to VH0/Vκ0 (His-tagged CEACAM1) | binding result [3] | Binder |
| --- | --- | --- | --- | --- | --- |
| no binding | no binding | 85 | 2 | no binding | VH1/Vκ1 (antibody, IgG4, V domains shown, IgG4 (S241P), kappa) VH: EVQLLESGGGLVQPGGSLRLSCAASGFIFSSHGMSWVRQAPGKGLEWVATISSGGTYTYYPDSVKGRFTISRDNSKNTLYLQMNSLKAEDTAMYYCARHDFDYDAAWFAYWGQGTLVTVSS VL: QIVLTQSPALLSLSPGERATMSCSANSSVSYMYWYRQKPGQAPKPWIYLTSNLASGVPARFSGSGSGTDYTLTISSLEAEDFATYYCQQWSSNPPTFGQGTKLEIK |
| no binding | no binding | 103 | 2.5 | no binding | VH2/Vκ4 (antibody, IgG4, V domains shown, IgG4 (S241P), kappa) VH: EVQLLESGGGLVQPGGSLRLSCAASGFIFSSHGMSWVRQAPGKGLEWVATISSGGTYTYYPDSVKGRFTISRDNSKNTLYLQMNSLRAEDTAMYYCARHDFDYDAAWFAYWGQGTLVTVSS VL: EIVLTQSPATLSLSPGERATLSCRANSSVSYMYWYQQKPGQAPRPWIYLTSNRATGIPARFSGSGSGTDYTLTISSLEPEDFATYYCQQWSSNPPTFGQGTKLEIK |
| no binding | no binding | 81 | 1.9 | no binding | VH3/Vκ4 (antibody, IgG4, V domains shown, IgG4 (S241P), kappa) VH: EVQLLESGGGLVQPGGSLRLSCAASGFIFSSHGMSWVRQAPGKGLEWVATISSGGTYTYYADSVKGRFTISRDNSKNTLYLQMNSLRAEDTAMYYCARHDFDYDAAWFAYWGQGTLVTVSS VL: EIVLTQSPATLSLSPGERATLSCRANSSVSYMYWYQQKPGQAPRPWIYLTSNRATGIPARFSGSGSGTDYTLTISSLEPEDFATYYCQQWSSNPPTFGQGTKLEIK |
| no binding | no binding | 74 | 1.8 | no binding | VH4/Vκ2 (antibody, IgG4, V domains shown, IgG4 (S241P), kappa) VH: EVQLLESGGGLVQPGGSLRLSCAASGFIFSSHGMSWVRQAPGKGLEWVSTISSGGTYTYYADSVKGRFTISRDNSKNTLYLQMNSLRAEDTAVYYCARHDFDYDAAWFAYWGQGTLVTVSS VL: EIVLTQSPATLSLSPGERATLSCRANSSVSYMYWYQQKPGQAPRPWIYLTSNRATGVPARFSGSGSGTDYTLTISSLEPEDFATYYCQQWSSNPPTFGQGTKLEIK |
| no binding | no binding | 103 | 2.5 | no binding | VH3/Vκ2 (antibody, IgG4, V domains shown, IgG4 (S241P), kappa) VH: EVQLLESGGGLVQPGGSLRLSCAASGFIFSSHGMSWVRQAPGKGLEWVATISSGGTYTYYADSVKGRFTISRDNSKNTLYLQMNSLRAEDTAMYYCARHDFDYDAAWFAYWGQGTLVTVSS VL: EIVLTQSPATLSLSPGERATLSCRANSSVSYMYWYQQKPGQAPRPWIYLTSNRATGVPARFSGSGSGTDYTLTISSLEPEDFATYYCQQWSSNPPTFGQGTKLEIK |
